The text below walks through data of paper PMC11301063, “The Musashi-1–type 2 deiodinase pathway regulates astrocyte proliferation”.

Data set [1] deals with T1, Musashi-1 (MSI1) (Mus musculus (mouse), UniProt Q61474 1-362). Nature of the data set: EMSA; 1 ug protein incomplete shift (two bands), 1.5 ug complete shift of 80 fmol probe; REMSA 1x binding buffer (LightShift kit), 0.125 mg/ml BSA, 80 fmol RNA, 1.5 ug protein, 20 ul, 20 min at RT; native 6% PAGE in 0.5x TBE pH 7.5 at 4 C; protein dialyzed in 20 mM TBE, 5 mM DTT. The settings on record: protein: recombinant; tags: His tag; label: 3' biotin; single strand.

Data set [2] deals with T1, Musashi-1 (MSI1). Nature of the data set: competition; free probe restored at 1250x (100 pmol) unlabeled RNA; 1.5 ug protein, 80 fmol labeled N1; REMSA 1x binding buffer (LightShift kit), 0.125 mg/ml BSA, 80 fmol RNA, 1.5 ug protein, 20 ul, 20 min at RT; native 6% PAGE in 0.5x TBE pH 7.5 at 4 C; protein dialyzed in 20 mM TBE, 5 mM DTT. As to conditions: protein: recombinant; tags: His tag; label: none; single strand.

T1 sequence (Q61474 whole entry): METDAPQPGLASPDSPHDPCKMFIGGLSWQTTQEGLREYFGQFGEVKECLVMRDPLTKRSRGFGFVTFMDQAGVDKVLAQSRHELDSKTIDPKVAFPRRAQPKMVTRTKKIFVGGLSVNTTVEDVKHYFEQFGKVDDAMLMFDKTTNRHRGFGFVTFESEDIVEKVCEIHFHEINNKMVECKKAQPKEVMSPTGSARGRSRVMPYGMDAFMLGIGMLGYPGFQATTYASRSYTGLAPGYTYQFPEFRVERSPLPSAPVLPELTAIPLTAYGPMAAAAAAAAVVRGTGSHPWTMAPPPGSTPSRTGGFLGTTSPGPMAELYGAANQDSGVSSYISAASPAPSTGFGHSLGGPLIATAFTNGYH

B1: cDio2 3'UTR RNA probe nt 2582-2625 (ssRNA)
RNA: GUUUAUAGCUAGAUUAGUUUAGCUGAAAGUUAAGUAGUUUGCAA
For the molecule B1, the binding result with Musashi-1 (MSI1) [1] is “binds”.

B2: unlabeled cDio2 3'UTR RNA competitor (ssRNA)
RNA: B1 RNA
On to B2, for which, in the data set with Musashi-1 (MSI1) [2], the binding result was “binds”.
